Article PMC2116414

Target: Acanthamoeba myosin-II (Acanthamoeba)
Test: electron microscopy

Substance: Acanthamoeba myosin-II (complex)
- stoichiometry N: 8
